Laboratory results from patent US10550165B2, “Peptide for inducing regeneration of tissue and use thereof” (STEMRIM INC., priority 2011, dated 2020).

Tests used:
[1] = test system: human-derived bone marrow mesenchymal stem cells (hMSC); assay: Migration assay on human-derived bone marrow mesenchymal stem cells; format: cell-based; details: human HMGB1 fragments produced in E. coli, 2 μM, FIG. 21B
Source text: Human HMGB1 fragments (2-215, 2-84, 2-44, 45-84, 85-169, 89-185, 89-195, and 89-205) were produced in E. coli and purified using appropriate columns in the same manner as described in Examples 14, 15, and 16 above. However, 89-215 was purified by the same method as used for 89-205 in Example 15.
Using human-derived bone marrow mesenchymal stem cells, each fragment was examined by the same migration assay performed on mouse-derived bone marrow mesenchymal stem cells (MSC-1) as described above. The fragments were used at a final concentration of 2 μM. The human-derived bone marrow mesenchymal stem cells used were hMSC (human Mesenchymal Stem Cell, Takara) at fourth passage. The growth medium used was a mesenchymal stem cell growth medium (MF medium, TOYOBO). The cells were cultured in an incubator under 5% CO2 at 37° C. The medium was changed with a fresh medium every two to four days. The cells were passaged when they reached 80% confluency.

[2] = test system: mouse bone marrow mesenchymal stem cell line (MSC-1 cells), PDGFRα-positive; assay: Migration assay (Boyden / 48-well chemotaxis chamber) on bone marrow mesenchymal stem cell line MSC-1; format: cell-based; details: for migration-promoting activity per equal mass, 2-215 taken as 1 / migration-promoting activity per molar concentration, 2-215 taken as 1: FIGS. 18C and 18D
Protocol: Cells of a mouse bone marrow mesenchymal stem cell line (MSC-1 cells, established by Tamai et al. of Osaka University (PDGFRα-positive cells in bone marrow are mobilized by high mobility group box 1 (HMGB1) to regenerate injured epithelia. (Tamai et al., Proc Natl Acad Sci USA. Apr. 4, 2011))) were detached from dishes using trypsin, and collected by centrifugation at 1200 rpm and 4° C. for 10 minutes. The resulting pellet was loosened and suspended at a cell concentration of 2.0×10^6 to 3.0×10^6 cells/ml by adding Dulbecco's Modified Eagle Medium (D-MEM) containing 10% fetal bovine serum (FBS). The recombinant protein and peptides produced in HEK293 were diluted with D-MEM containing 10% FBS. The negative control used was phosphate buffered saline (PBS). An acrylic Boyden chamber was used; cells of the mouse bone marrow mesenchymal stem cell line prepared at a cell concentration of 3×10^6 cells/ml were placed in its upper layer, while a diluted protein or peptide is added to the bottom layer. More specifically, a 28 μl aliquot of a protein or peptide solution was added to each well of the bottom plate of a 48-well chemotaxis chamber (NEURO PROBE 48WELL CHEMOTAXIS CHAMBER), and a polycarbonate membrane with 8 μm pores (Neuro Probe, Inc, Cat: 866-417-0014) was placed on the bottom plate. Then, an upper plate was placed on the membrane and screwed tightly. 50 μl of cells of the mouse bone marrow mesenchymal stem cell line after concentration adjustment were added to the upper plate wells. The chamber was placed in an incubator under 5% CO2 at 37° C. After four hours, the membrane was removed from the chamber and stained with Diff-Quik (Sysmex, Cat: 16920) to detect cells that migrated through membrane pores to the lower compartment.
The peptides listed below were custom synthesized using the solid phase method by Medical & Biological Laboratories (MBL). The peptides were synthesized based on the mouse HMGB1 sequence (SEQ ID NO: 3). Synthetic peptides described in subsequent Examples were also prepared based on the mouse HMGB1 sequence. • A synthetic peptide consisting of the amino acid sequence from positions 1 to 10 of HMGB1 (1-10); • a synthetic peptide consisting of the amino acid sequence from positions 1 to 34 of HMGB1 (1-34); • a synthetic peptide consisting of the amino acid sequence from positions 37 to 62 of HMGB1 (37-62); • a synthetic peptide consisting of the amino acid sequence from positions 27 to 62 of HMGB1 (27-62); • a synthetic peptide consisting of the amino acid sequence from positions 56 to 72 of HMGB1 (56-72); • a synthetic peptide consisting of the amino acid sequence from positions 11 to 20 of HMGB1 (11-20); • a synthetic peptide consisting of the amino acid sequence from positions 11 to 25 of HMGB1 (11-25); • a synthetic peptide consisting of the amino acid sequence from positions 11 to 30 of HMGB1 (11-30); • a synthetic peptide consisting of the amino acid sequence from positions 11 to 34 of HMGB1 (11-34); • a synthetic peptide consisting of the amino acid sequence from positions 11 to 44 of HMGB1 (11-44); • a synthetic peptide consisting of the amino acid sequence from positions 17 to 44 of HMGB1 (17-44); • a synthetic peptide consisting of the amino acid sequence from positions 1 to 25 of HMGB1 (1-25); and the whole mouse HMGB1 produced in HEK293 (1-215(HEK)) as a positive control were adjusted to 100 μg/ml and placed in the lower layer of a chemotaxis chamber to assess the migration-promoting activity on bone marrow mesenchymal stem cell line (MSC-1). Results
As positive controls, centrifuged supernatant of the skin of a one-day-old mouse (one individual) incubated in PBS at 4° C. for 12 hours, and the whole mouse HMGB1 (HMGB1(HEK_1-215)) produced in HEK293 were used. […]

[3] = human HMGB1 fragments produced in E. coli, 2 μM, FIG. 18B
[4] = human HMGB1 fragments produced in E. coli, 2 μM
[5] = human HMGB1 fragments 2-215, 2-205, 2-195, 2-185 produced in E. coli, 2 μM, FIG. 21A
[6] = human HMGB1 fragments 89-215, 89-205, 89-195, 89-185 and their Q column fractions, E. coli, 2 μM, FIGS. 19B and 19D

**Q.** With “2-44: human HMGB1 fragment, positions 2 to 44, produced in E. coli (GKGDPKKPRGKMSSYAFFVQTCREEHKKKHPDASVNFSEFSKK; UniProt P09429 2-44, looked up, fragment)” as the molecule, how does the migration-promoting activity [1] read?
**A.** greater than human HMGB1 fragment (2-215)

**Q.** What about the migration-promoting activity [2, 3] of the same molecule?
**A.** showed migration-promoting activity on bone marrow mesenchymal stem cells

**Q.** What about the “migration-promoting activity per equal mass, 2-215 taken as 1” value [2, 4] of the same molecule?
**A.** 7.1 times

**Q.** What about the “migration-promoting activity per molar concentration, 2-215 taken as 1” value [2, 4] of the same molecule?
**A.** 1.82 times

**Q.** Which results are given for “45-84: peptide of positions 45 to 84 of mouse HMGB1, produced using HEK293 (CSERWKTMSAKEKGKFEDMAKADKARYEREMKTYIPPKGE; UniProt P63158 45-84, looked up, fragment)”?
**A.** migration-promoting activity [1]: greater than human HMGB1 fragment (2-215); migration-promoting activity [2, 3]: showed migration-promoting activity on bone marrow mesenchymal stem cells; migration-promoting activity per equal mass, 2-215 taken as 1 [2, 4]: 8.1 times; migration-promoting activity per molar concentration, 2-215 taken as 1 [2, 4]: 2.04 times; migration-promoting activity ([2]; protein and peptides produced using HEK293 (mouse HMGB1), 50 μg/ml, 4 h, FIG. 2A): showed migration-promoting activity

B1: 2-195: human HMGB1 fragment, amino acids of positions 2 to 195, produced in E. coli (protein, UniProt P09429 2-195, looked up, fragment)
chain: GKGDPKKPRGKMSSYAFFVQTCREEHKKKHPDASVNFSEFSKKCSERWKTMSAKEKGKFEDMAKADKARYEREMKTYIPPKGETKKKFKDPNAPKRPPSAFFLFCSEYRPKIKGEHPGLSIGDVAKKLGEMWNNTAADDKQPYEKKAAKLKEKYEKDIAAYRAKGKPDAAKKGVVKAEKSKKKKEEEEDEEDEE
**Q.** How did the migration-promoting activity [2, 5] turn out when B1 was run?
**A.** stronger migration-promoting activity than fragments 2-215 and 2-205

B2: 2-81: human HMGB1 fragment, positions 2 to 81, produced in E. coli (protein, UniProt P09429 2-81, looked up, fragment)
chain: GKGDPKKPRGKMSSYAFFVQTCREEHKKKHPDASVNFSEFSKKCSERWKTMSAKEKGKFEDMAKADKARYEREMKTYIPP
**Q.** With B2 as the molecule, how does the migration-promoting activity [2, 3] read?
**A.** showed migration-promoting activity on bone marrow mesenchymal stem cells

B3: 2-70: human HMGB1 fragment, positions 2 to 70, produced in E. coli (protein, UniProt P09429 2-70, looked up, fragment)
chain: GKGDPKKPRGKMSSYAFFVQTCREEHKKKHPDASVNFSEFSKKCSERWKTMSAKEKGKFEDMAKADKAR
**Q.** With B3 as the molecule, how does the migration-promoting activity [2, 3] read?
**A.** showed migration-promoting activity on bone marrow mesenchymal stem cells

B4: 2-170: human HMGB1 fragment, positions 2 to 170, produced in E. coli (protein, UniProt P09429 2-170, looked up, fragment)
chain: GKGDPKKPRGKMSSYAFFVQTCREEHKKKHPDASVNFSEFSKKCSERWKTMSAKEKGKFEDMAKADKARYEREMKTYIPPKGETKKKFKDPNAPKRPPSAFFLFCSEYRPKIKGEHPGLSIGDVAKKLGEMWNNTAADDKQPYEKKAAKLKEKYEKDIAAYRAKGKPDA
**Q.** Which migration-promoting activity [2, 3] does the source give for B4 here?
**A.** showed migration-promoting activity on bone marrow mesenchymal stem cells

B5: 93-215: human HMGB1 fragment, positions 93 to 215, produced in E. coli (protein, UniProt P09429 93-215, looked up, fragment)
chain: NAPKRPPSAFFLFCSEYRPKIKGEHPGLSIGDVAKKLGEMWNNTAADDKQPYEKKAAKLKEKYEKDIAAYRAKGKPDAAKKGVVKAEKSKKKKEEEEDEEDEEDEEEEEDEEDEDEEEDDDDE
**Q.** Which migration-promoting activity [2, 3] does the source give for B5 here?
**A.** showed migration-promoting activity on bone marrow mesenchymal stem cells

B6: 2-185: human HMGB1 fragment, amino acids of positions 2 to 185, produced in E. coli (protein, UniProt P09429 2-185, looked up, fragment)
chain: GKGDPKKPRGKMSSYAFFVQTCREEHKKKHPDASVNFSEFSKKCSERWKTMSAKEKGKFEDMAKADKARYEREMKTYIPPKGETKKKFKDPNAPKRPPSAFFLFCSEYRPKIKGEHPGLSIGDVAKKLGEMWNNTAADDKQPYEKKAAKLKEKYEKDIAAYRAKGKPDAAKKGVVKAEKSKKKK
**Q.** B6 was tested. Which migration-promoting activity [2, 5] did it give?
**A.** stronger migration-promoting activity than fragments 2-215 and 2-205

B7: 89-195: human HMGB1 fragment, positions 89 to 195, produced in E. coli (protein, UniProt P09429 89-195, looked up, fragment)
chain: FKDPNAPKRPPSAFFLFCSEYRPKIKGEHPGLSIGDVAKKLGEMWNNTAADDKQPYEKKAAKLKEKYEKDIAAYRAKGKPDAAKKGVVKAEKSKKKKEEEEDEEDEE
**Q.** B7 was tested. Which migration-promoting activity [1] did it give?
**A.** exhibited stronger activity

**Q.** And the migration-promoting activity [2, 6]?
**A.** stronger activity than any fragments between positions 89 and 215

B8: 89-205: human HMGB1 fragment, positions 89 to 205, produced in E. coli (protein, UniProt P09429 89-205, looked up, fragment)
chain: FKDPNAPKRPPSAFFLFCSEYRPKIKGEHPGLSIGDVAKKLGEMWNNTAADDKQPYEKKAAKLKEKYEKDIAAYRAKGKPDAAKKGVVKAEKSKKKKEEEEDEEDEEDEEEEEDEED
**Q.** With B8 as the molecule, how does the migration-promoting activity [2, 6] read?
**A.** weak migration-promoting activity

B9: 89-215: human HMGB1 fragment, positions 89 to 215, produced in E. coli (protein, UniProt P09429 89-215, looked up, fragment)
chain: FKDPNAPKRPPSAFFLFCSEYRPKIKGEHPGLSIGDVAKKLGEMWNNTAADDKQPYEKKAAKLKEKYEKDIAAYRAKGKPDAAKKGVVKAEKSKKKKEEEEDEEDEEDEEEEEDEEDEDEEEDDDDE
**Q.** With B9 as the molecule, how does the migration-promoting activity [2, 6] read?
**A.** weak migration-promoting activity

B10: 2-84: human HMGB1 fragment, positions 2 to 84, produced in E. coli (protein, UniProt P09429 2-84, looked up, fragment)
chain: GKGDPKKPRGKMSSYAFFVQTCREEHKKKHPDASVNFSEFSKKCSERWKTMSAKEKGKFEDMAKADKARYEREMKTYIPPKGE
**Q.** With B10 as the molecule, how does the migration-promoting activity [1] read?
**A.** greater than human HMGB1 fragment (2-215)

**Q.** And the migration-promoting activity ([2]; fragment 2-84 and fusions with acidic tail fragments, produced in E. coli, FIG. 21D)?
**A.** exhibited migration-promoting activity

**Q.** And the migration-promoting activity [2, 3]?
**A.** showed migration-promoting activity on bone marrow mesenchymal stem cells

**Q.** What about the “migration-promoting activity per equal mass, 2-215 taken as 1” value [2, 4] of the same molecule?
**A.** 5.5 times

**Q.** And the “migration-promoting activity per molar concentration, 2-215 taken as 1” value [2, 4]?
**A.** 2.37 times
